These results are taken from the supplement of paper PMC12042874.

± gives the uncertainty stated by the source.

The data set in a line: amyloid nucleation score (Sup35N fusion, yeast selection) (log enrichment); library NNK2; higher = more nucleation; inactive = no reads after selection. The procedure, abridged: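 The nucleation score equals the log enrichment of output over input reads from DiMSum, centred on the mode score of non-aggregating sequences. It was computed only for sequences with 100 or more input reads. The reads came from Illumina sequencing of plasmid inserts from psi-negative yeast expressing Sup35N fused to peptides of 20 random codons, induced with 100 μM copper sulfate for 24 hours and grown 7 days at 30°C without adenine and uracil.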
TEQICGNMWSLYESFNFINS: the amyloid nucleation score is -0.474 ± 1.1. In turn, FYTYCSLGWTEAAGAVFLES had an amyloid nucleation score of -1.34 ± 0.75. In the case of PVLCVYFSIYN, the amyloid nucleation score stood at 8.151 ± 0.054.

SALSLICDRWFDCFLRGTQY returned an amyloid nucleation score of 3.66 ± 0.15. Next, NWMHC: 1.39 ± 0.42; YICRGASGIKSQLREWDVAH: -0.269 ± 0.74; ELWLYFFL: -1.07 ± 0.34. For KARRPRIWDMDLLQLWANLP the value was 1.12 ± 0.66; for SFYLLCLSFMSLCWASRLVV, 4.83 ± 0.073. RNRCSSDFGSGRINVDGFNM: the amyloid nucleation score result is “inactive”. For the substance LAFTFRSTRRTTSHSEVSSS, the amyloid nucleation score was found to be 1.38 ± 0.43. For LRFASSNKLVGLD the value was “inactive”; for VLGNGYPD, -0.19 ± 1.1; for LNLNR, “inactive”. Next, FYLFQWCK: -0.889 ± 1.1. As to NTELSVMPGRLSNFIKLNVT, the amyloid nucleation score was -0.248 ± 0.65. For the substance RFYIALMDFRSMIFGS, the amyloid nucleation score was found to be 5.195 ± 0.046. Next, VIAGDTQGMSRGWFLGVLPW: “inactive”; GGGSG: 0.123 ± 1.

In turn, MVLVS gave an amyloid nucleation score of 0.548 ± 0.34. Substance LAHVVNIVCFNF had an amyloid nucleation score of 7.836 ± 0.026. For QSFNGS the value was -1.2 ± 0.54; for SRLCFWSVGFNKTQQVEPVR, -1.33 ± 1.1; for FSVMMLMAVLMGTKIGVTEN, 4.19 ± 0.087. As for CISVVFVRHNGNFVSFNELV, the amyloid nucleation score amounted to 6.412 ± 0.05. For RTERSAFLLAPGNGLSRVRR the value was 0.831 ± 0.4; for YFILVLVESLHPSGVPAFWC, -0.103 ± 0.65; for YYLSNPRGVHISIYREHNMS, 6.392 ± 0.043. In turn, DMWTSFWSCSTYRKEYFTRC showed an amyloid nucleation score of 1.25 ± 0.11. As for VMPGSLCLVRVFFCIMHVLY, the amyloid nucleation score entry was “inactive”. VFTTQEGTTTIPRNSMIEYA returned an amyloid nucleation score of -0.193 ± 0.37. In the case of QVMMIWCIWDY, the amyloid nucleation score is 6.949 ± 0.042.

As to TGLIGEPYGWDRSTTGF, the amyloid nucleation score is 0.17 ± 0.43. In turn, MFNLSLNEFKPGLNRDCVQ came in with an amyloid nucleation score of -0.258 ± 0.56. Next, CAFVGKVSTARLVSSRNSFN: 5.801 ± 0.045; CEISFVFIWILIVFNNVDPD: “inactive”; GWCSYTP: 0.832 ± 0.67. Next, GMWRIPYGWGPCYHSCVNQG: 4.958 ± 0.047.

As for YRQMIRDYWIEKQSLHIRAD, the amyloid nucleation score amounted to 0.27 ± 0.56. Next, STPIHDIFTPTLDRV: -0.08 ± 0.5; SDNEEKTCGAFVVLS: -0.719 ± 0.49.

With FVEMLYLGDVGDCHILQCVY, the amyloid nucleation score entry is “inactive”.

Substance GWVLTSCGANGWRK had an amyloid nucleation score of -0.371 ± 0.63.

Substance KYSVMLALLEPIRWTWLIQF gave an amyloid nucleation score of 0.323 ± 0.62. For TLHCRSILGELLYVDMVKDD the value was -0.297 ± 0.46; for GMWFPLWFVDSSNSMSLLCV, -1.59 ± 0.76; for KCIAGMSWCEH, 0.252 ± 0.2. ERYKCVYDNDRLMSLTSPDL registered an amyloid nucleation score of -0.429 ± 0.29. Next, IKISYTLMASEAVNTFS: -1.22 ± 1.1; FLDGAYSWLWLGSYIRGLSH: -0.262 ± 0.56. Next, SGVLSLGGVQSWNSLLRWDN: -0.476 ± 0.44; SAKHTWVISR: 0.098 ± 0.79; NSHFALDGKSW: -0.711 ± 0.39.

DMNVVYTVCRVKARDCERDY gave an amyloid nucleation score of 5.322 ± 0.041. Consider FRGVLWLSYLQDYRFDLYCM, for which the amyloid nucleation score is -0.773 ± 0.61. For HVNRGYSLVTPRMEVDWQLS, the amyloid nucleation score is 1.42 ± 0.15. For the substance HNNFYPA, the amyloid nucleation score was -0.552 ± 0.35.

GDYGPSDIMKKQFLFVSLVY gave an amyloid nucleation score of -0.744 ± 1.1.

In the case of CRYYSNPAPSPRLVN, the amyloid nucleation score result was “inactive”. With LCSTG, the amyloid nucleation score turned out to be 0.815 ± 0.53. The substance GRNLMLSGVCGYKDVFLQAR displayed an amyloid nucleation score of 0.359 ± 0.34. For VVSWKCIEYYVVE, the amyloid nucleation score was -0.871 ± 0.78. With NVLRMMC, the amyloid nucleation score was -0.286 ± 0.27. For QRLYPFYCIGYYITMYVVHC the value was 2.45 ± 0.13. For CDMPLKLWTLAVLPLDVPYR the value was 0.179 ± 0.49; for FVYGQWPNRSRAISSTSMFK, -0.723 ± 0.36. The substance SEMDPPYPEISHYRYQRNHW gave an amyloid nucleation score of 0.11 ± 0.54. Substance TSVIGKSGPRYLFLEC displayed an amyloid nucleation score of 0.299 ± 0.8. In the case of VSNKDVLSQDMAKLIWW, the amyloid nucleation score came to 0.81 ± 0.22. Next, FTNVSEIWMSFGHNPESGLA: 2.92 ± 0.074; QGRRISKLC: -1.39 ± 1; CRLGLLF: 0.767 ± 0.66. On to YSSAGDVMLNRQLDGCWLTR, for which the amyloid nucleation score was -0.006 ± 0.53. Next, TSRRHYIVSVNLMK: “inactive”.

For the substance CCDRSAPAT, the amyloid nucleation score is -0.12 ± 0.54. On to TFFYYYCMCSRTL, for which the amyloid nucleation score was 7.83 ± 0.061. Turning to ELLEGYSLKEMYAFPVKWAV, the amyloid nucleation score was determined as 0.741 ± 0.6.

TIDKISCNIRLRPVYMLLNA returned an amyloid nucleation score of 0.342 ± 0.56. For VYGSCSVMLGNWCSSVFKVL the value was 0.174 ± 1; for ASCNKGPEKSGQLFLLSAFL, -0.641 ± 0.49; for NRAVGLLRYTMVMGT, 0.026 ± 1.1. For NFLADCLDGSANAIWVHVAS the value was 0.57 ± 0.23; for LFARWTFDNFSLRVVLQTRI, -0.861 ± 0.25. For TFVITLNGHSCQVGTITPRN the value was 8.012 ± 0.04; for ADIAWSCRLESNCFPTLSMM, 0.255 ± 0.33.

YIGLSRATWM: the amyloid nucleation score was -1.75 ± 0.62. For SNVSKYTKRGDM the value was -0.184 ± 0.33; for PSVKIRFQVAYWLYRSLMMS, 0.877 ± 0.55; for IRYVMHWFISAVILTTPPCG, 0.355 ± 0.8.

In turn, NNSQEFSSYTWMNYLLIVKW had an amyloid nucleation score of -1.02 ± 1.

RNYRIETSSNVIKV showed an amyloid nucleation score of 0.292 ± 0.65. YITRFLPQVTVWQRVFCCSY: the amyloid nucleation score worked out at 7.454 ± 0.039. Consider RLYNKALYANFKNYSLTCFS, for which the amyloid nucleation score is -0.39 ± 0.64. YIHVVNTVSAVGVRRGSVGT had an amyloid nucleation score of 0.031 ± 0.76. For MMAIFWGFSVQRRRGSGIDL the value was 2.74 ± 0.18; for RKPPMPRFQLDSNRQKG, 0.313 ± 0.64.

In turn, TCLAKLLFCKSTSKDRV gave an amyloid nucleation score of 0.063 ± 1.1.

GGNVLRE came in with an amyloid nucleation score of -0.527 ± 0.35. For NTGSLRYWHCVSSGNSTTGR the value was “inactive”. Consider MALVSTSSFFDV, for which the amyloid nucleation score entry was “inactive”.

LDTHRPPYQDRVWLTRSANT registered an amyloid nucleation score of 1.79 ± 0.24. For RLNMYSLSRLVYWAIVMRKM the value was 0.823 ± 0.25; for EVGVV, 0.622 ± 0.18. Next, SFSVVGNHHVCMDYDMVLNG: 0.315 ± 0.32.

PHSLVLSGWHNLDAFFNATL: the amyloid nucleation score result is “inactive”. Next, CCCGRMTSVHVDKPDLYLPL: -0.047 ± 1.1; LASAFG: -0.792 ± 0.79. Take SSRVDLLLLVETAFARSRIW: the amyloid nucleation score was 3.31 ± 0.08.

For LTLLYIWSKDAVRYLLGNMD, the amyloid nucleation score was -1.09 ± 1.1. With VGYIQGFERTYL, the amyloid nucleation score is -0.42 ± 0.76. Next, DFGREVVVIPLSEV: 0.323 ± 0.53; VYISSSFDFWMFVNFIDDTL: -0.511 ± 0.43. For NQQPKSLLYVSRRMQGTMIF the value was 0.089 ± 0.8; for YYYVTCSILPLFYFEKGLAL, 5.711 ± 0.037. As to NFPRRSRVLKYCITLSSNHS, the amyloid nucleation score was -0.158 ± 0.5. TFHRS displayed an amyloid nucleation score of 1.05 ± 0.29.

As for DMTVLYCMFCSLSWQINCFR, the amyloid nucleation score worked out at 0.838 ± 0.25.

On to RVNFSGIDVVRLFHYCFYMK, for which the amyloid nucleation score is -1.51 ± 0.76.

SKNLE: the amyloid nucleation score was -2.09 ± 0.48. Next, YNCLRMELVLSHKGDLTLM: 5.25 ± 0.091; RSILSCEGPDSLLEAFNEQI: 0.625 ± 0.64; QGGLDRMYGSDVVYFKDTYP: 0.379 ± 0.54.

In turn, SAFYKQCEWFFNLMANSLCG displayed an amyloid nucleation score of -0.021 ± 0.63.

GIPMSSPNGLDTYSTPMH showed an amyloid nucleation score of 2.63 ± 0.074. Next, NQCISDPNSCSSCALL: “inactive”. Next, HNKVLGSSHHKLRQIPTCMC: 0.484 ± 0.8; PAERSCGQCFQEFSWY: 0.102 ± 1.1.

For YCVSNWASNFSLLLYNGNMY, the amyloid nucleation score entry is “inactive”. For SQIWFTVTYGQYCYYIVSL the value was -0.33 ± 0.33; for SNSHNSRSIAY, 0.475 ± 0.57; for QSVKLFNSPTSAELILGTKE, -0.982 ± 0.78. Next, RWLPSVID: -0.302 ± 0.61; RGLRMTRIISFFGIVGL: 8.507 ± 0.026. DSDKLHDRDVVWNWGRGLYR: the amyloid nucleation score worked out at 0.399 ± 0.23. On to GARMHCGFCMGSWWYVFWVR, for which the amyloid nucleation score stood at 1.32 ± 0.37.

On to YSLVRIFDGVWITRDSCNIL, for which the amyloid nucleation score entry is “inactive”.

The substance TMYWTAMMISGDLACQIGSR had an amyloid nucleation score of 6.127 ± 0.046. Next, SYGFFMVWIEGYFLVMASRI: “inactive”; NSVFFY: -1.63 ± 1.1.

In the case of THWMKRRVVA, the amyloid nucleation score was found to be 1.33 ± 0.17.
